Reference: patent US20200291112A1

Molecular target: Human GPA33 (Novoprotein), recombinant protein immobilized on CM5 chips (human) (UniProt Q99795)
Test: SPR (Biacore T100), GPA33 recombinant protein immobilized on CM5 chip, antibody flowed over

Human GPA33 (Novoprotein), recombinant protein immobilized on CM5 chips (human), sequence (Q99795 22-235 limits assumed): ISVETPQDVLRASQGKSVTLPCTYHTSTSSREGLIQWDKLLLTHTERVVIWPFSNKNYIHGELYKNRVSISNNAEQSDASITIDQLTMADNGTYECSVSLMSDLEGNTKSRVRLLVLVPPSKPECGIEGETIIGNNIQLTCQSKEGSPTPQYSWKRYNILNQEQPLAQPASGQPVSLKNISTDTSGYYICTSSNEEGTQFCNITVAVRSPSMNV

- Kd: 1.59 nM
- koff: 0.00294 s⁻¹
- kon: 1.85e+06 M⁻¹ s⁻¹
Substance: hA33-mC825 BsAb (original humanized hA33 in hA33-mC825 bispecific format, Cheal et al. 2016) (bispecific antibody)
